Data from the DeepSol protein solubility set.

assay: soluble on expression in E. coli; label from the status in PepcDB or PDB records

Row | Sequence | soluble on expression in E. coli
1 | MGSDKIHHHHHHMSNRIKNIHYGTQRQQLKNLTKKEYQALREMCFLAKNLYNVGTYNVRQHYFNQGEHLNYEANYHVCKENENYKLLNSNIAQQILKEVDSSFRSFFGLIKLAKEGKYDFRGIKSPKYLDKEGFFSIIIGQIRIKEDGILNVPMSPAFKKLYGKVSIKVPQNILEKKIKEIRIIPKHKARFFEIQYCYEIPKSEEVSNQKNALAIDLGLENLCTCVTNLGDSFIIDGKRLKSVNQWANKQNDKIEALKLKKNITAITRKQFKVWNKRNNQVKDYVNKTCFYIIDYCVKNNIGNLIVGYNAKLEKSDNMERKIYRNFIRIPFGEIKGKLEYLCKIKNINFIRQEESYTSKSDFFADDFLPDINVDNVKKYDFKGERITRGQYKSSVGIIINADVNASLNILKKSQVVNLSNLQNNPQILKQPQRVRIS | not soluble
2 | MGSDKIHHHHHHMTVLHSVDFFPSGNASVAIEPRLPQADFPEHHHDFHEIVIVEHGTGIHVFNGQPYTITGGTVCFVRDHDRHLYEHTDNLCLTNVLYRSPDRFQFLAGLNQLLPQELDGQYPSHWRVNHSVLQQVRQLVAQMEQQEGENDLPSTASREILFMQLLLLLRKSSLQENLENSASRLNLLLAWLEDHFADEVNWDAVADQFSLSLRTLHRQLKQQTGLTPQRYLNRLRLMKARHLLRHSEASVTDIAYRCGFSDSNHFSTLFRREFNWSPRDIRQGRDGFLQ | not soluble
3 | MATFKDFRNSVKPNWCPGCGDFSVQAAIQRAAANVGLNPDELAVISGIGCSGRISGYINSYGVHSIHGRALPIAQGVKMANRDLTVIASGGDGDGFAIGMGHTIHSIRRNIDITYIVMDNQIYGLTKGQTSPRSEAGFKTKSTPQGSIEPSLNVMEMALTAGATFVAQSFSSDLKELTQIIEAGINHKGFSLINVFSPCVTYNKVNTYDWFKENLTKLSTVEGYDPSNRMMAMQTLMENNGLVTGLIYQNTKQPSYQELVKGYSEEPLVKSDLNMDQKMFDELVAEFM | not soluble
4 | MIQITVVQIDNYGPWTVTPNPRRESDLQALQSRLYCDMNLQFGAHKGLAFYTRFDNIIAITNGIDLETHKRIQNSVKNRYPFTVSMAVASAETAYEAQKLATKTIQEYGSAQDDVRKEVLDVANEFVSNGYVQLAHVDINDITGKLTDLETAYDTYLSVQKTKLKLMEELKKYDSLGFFIGGDNFMCPCNGMNEKDFLCMFEDIKDSCGIELKAGIGIGKTAEDASNLADIGLEVIREGKTDSQVYTLKQ | not soluble
5 | MGSDKIHHHHHHMQTLKRGFAVAALLFSPLTMAQDINAQLTTWFSQRLAGFSDEVVVTLRSSPNLLPSCEQPAFSMTGSAKLWGNVNVVARCANEKRYLQVNVQATGNYVAVAAPIARGGKLTPANVTLKRGRLDQLPPRTVLDIRQIQDAVSLRDLAPGQPVQLTMIRQAWRVKAGQRVQVIANGEGFSVNAEGQAMNNAAVAQNARVRMTSGQIVSGTVDSDGNILINL | not soluble
6 | GAMEPKASCPAAAPLMERKFHVLVGVTGSVAALKLPLLVSKLLDIPGLEVAVVTTERAKHFYSPQDIPVTLYSDADEWEMWKSRSDPVLHIDLRRWADLLLVAPLDANTLGKVASGICDNLLTCVMRAWDRSKPLLFCPAMNTAMWEHPITAQQVDQLKAFGYVEIPCVAKKLVCGDEGLGAMAEVGTIVDKVKEVLFQHSGFQQS | soluble
7 | QGHMRVEVFPVEGLPLIKEGDDLAELISSRVRFEDGDVLVVCSTVISKAEGRIRRLEEFNPSERAKEIAARIGKPAEFVQAVLEESEEVLLDFPFLLVKAKFGNVCVNAGIDASNVEEGSLLLPPLDPDGSAEKLRRRILELTGKRVGVIITDTNGRCFRRGVVGFAIGISGVKAMKDWIGRKDLYGRELEVTVECVADEIAAFANLLMGEGGDGIPAVVVRGLNVAGEGSMEEIYRSEEEDVIRRCLKRCLGS | soluble
8 | DMPRPTGLAADIRWTAYGVPHIRAKDERGLGYGIGYAYARDNACLLAEEIVTARGERARYFGSEGKSSAELDNLPSDIFYAWLNQPEALQAFWQAQTPAVRQLLEGYAAGFNRFLREADGKTTSCLGQPWLRAIATDDLLRLTRRLLVEGGVGQFADALVAAAPPGAEKV | soluble
9 | MSKQQIGVVGMAVMGRNLALNIESRGYTVSIFNRSREKTEEVIAENPGKKLVPYYTVKEFVESLETPRRILLMVKAGAGTDAAIDSLKPYLDKGDIIIDGGNTFFQDTIRRNRELSAEGFNFIGTGVSGGEEGALKGPSIMPGGQKEAYELVAPILTKIAAVAEDGEPCVTYIGADGAGHYVKMVHNGIEYGDMQLIAEAYSLLKGGLNLTNEELAQTFTEWNNGELSSYLIDITKDIFTKKDEDGNYLVDVILDEAANKGTGKWTSQSALDLGEPLSLITESVFARYISSLKDQRVAASKVLSGPQAQPAGDKAEFIEKVRRALYLGKIVSYAQGFSQLRAASEEYNWDLNYGEIAKIFRAGCIIRAQFLQKITDAYAENPQIANLLLAPYFKQIADDYQQALRDVVAYAVQNGIPVPTFSAAVAYYDSYRAAVLPANLIQAQRDYFGAHTYKRIDKEGVFHTEWLD | soluble
10 | MGHHHHHHSHMDEGVKEKFIGAVLGAAVGDALGKSVEDITEEEVFEFYGDRIRDFVTPHPSSPAYGQLPEETSDETTIFRLLLESLVEKKALDVRDFLNRLMEWYDREEMHRYPDPMLLTAIDLLSRGINPSTHGLTSFSVEGILRSVALGLYHYYNPELAAEGSKVVSLLTHRSDVISDASAILGALIAHLVRGDFYLEDFREKLRLIETLKDYAKEEKHKKILDRVAELLMESADLETAINTLGNGTFAFEAFPLALYIFLSNVENPEEALFQAVNSYGEFGGDTDAIGFLVGAMLGAYYGEEAIPYHLRENVENSQKLRELAERLYEVVEKQVGFSQ | soluble
11 | MKLYLIGLGPGDPELLTLKALRLIQRLPVLFYPKEEGREPVALGIARPFLPEGKPLLPLPLFTGGDPKEAERARREAARRVREALSRYGEGGYLVLGDSLLYASPLNLLPHLEGVAVEAVPGISAHQLAAASLLKPIALGEEGFAAVTGLGPVDPEGLDRFQSVFVYKAKDLEALERAFPDREGWAFLRLGMPGERVLPLGAAKGVARDYWTLVGLWRKGGEG | soluble
12 | MITFTANIDGSQANAGTGTGSLGMGVANILFDDLSNEFSWDISWSGLTGNVTAAHFHGPALLNQNAGVQVAISTLSNPTSGSDTINTAQAADLLAGLWYINIHTDTSPSGEIRGQVQVASVPEPGTLSLLLLSMIGVFYSRSKILLEHHHHHH | not soluble
13 | ENLKLGFLVAQPEEPASQTQWKFADKAGKDLGFEVIKIAVPDGEKTLNAIDSLAASGAKGFVISTPDPKLGSAIVAKARGYDMKVIAVDNQFVNAKGKPMDTVPLVMEAATKIGERQGQELYKEMQKRGWDVKESAVMAITANELDTARRRTTGSMDALKAAGFPEKQIYQVPTKSEDIPGAFDAANSMLVQHPEVKHWLIVGMNDSTVLGGVRATEGQGFKAADIIGIGINGVDAVSELSKAQATGFYGSLLPSPDVHGYKSSEMLYNWVAKDVEPPKFTEVTDVVLITRDNFKEECEKKGLGGK | soluble
14 | MGSDKIHHHHHHMIMLEKPTCRPNNPNFSSGPCSKRPGWTLEVLKNALVGRSHRSREAALRLAEIVDLTREVLEVPSDYRIGIVPASDTGAVEMSLWSLLGERGVDMAAWESFGSGWITDVVEKLKLSDVRRFEAPYGELPDLTQMDFDRDVVFTWNGTTSGVRIPNADFIPERRAGLTICDATSAAFAQNLDFSKLDVVTFSWQKVLGGEAAHGMLILSPRAVERLESYVPTWPMPQIFCLTKDGKLNENIFKGVTINTPSLLCIEDFLDALKWAKAQGGLHALMARVEKNFAVLDAFVRKTPWLEYLAKDPQVRSNTSVCLDIVDPVVTALDTEKRVSFIKAIVNRLDEEEAAYDIGSYRDAPPGLRIWTGITIEASDLEILTSWLEWAFQVEKAQL | not soluble
15 | MGSDKIHHHHHHMTNKVVNNDKISSVGIIGCGWLGSALAYQLKNQDIAVLATRSNIDNIEQLKSQGIEAEVLSLPAEQAQLNTHPIFKQQCLVIAITPQFRQGRVDYADKVQQLVESAKVGNCVEQIILLSSSAIYNGLSGDVEENSILDMSADKVSVLNQAEQAVLSFNHPGRNESRLNALNAEVGNKKAYVLRLSGLVGPKRHPGKFLLNGHMLKSPQAIVNLIHQQDAVGLIQTLLQSANCGGIFNGVSSTKVTKKQYYQAAASALQLPTPTFEEIELSEDNAPKVVSGKKTQAELAYEFVYDDLLAWLELAV | not soluble
16 | MIKNNIKHTWYFGHPQQLVWDYLTKPELLSQWLMESDFQPVAGHTFMFNTKPKVKVGFDGLIYCQVLKVQPDHELEHHHHHH | soluble
17 | SLEPIGRSLQGVTGRPDFQKRLEQMKEKVMKDQDVQAFLKENEEVIDQKMIEKSLNKLYEYIEQSKNCSYCSEDENCNNLLEGYHPKLVVNGRSIDIEYYECPVKRKLDQQKKQQSLMKSMYIQQDLLGATFQQVDISDPSRLAMFQHVTDFLKSYNETGKGKGLYLYGKFGVGKTFMLAAIANELAEKEYSSMIVYVPEFVRELKNSLQDQTLEEKLNMVKTTPVLMLDDIGAESMTSWVRDEVIGTVLQHRMSQQLPTFFSSNFSPDELKHHFTYSQRGEKEEVKAARLMERILYLAAPIRLDGENRRHP | soluble
18 | MTNQNVLLNISGVKFVLRIPNAVNLSLINREYEAFNNAQAYRAGLNVETPVLDAKSGVKLTRYLENSNTLSQIQLNEQSCLSQVVNNLYRLHNSEFVFRNVFSVFDEFRQYFSLLENKSAFYQADSRMDKLSAVFWQFEEINKEVILRPCHNDLVPENMLLQDDRLFFIDWEYSGLNDPLFDIATIIEEAHLSKEAADFLLETYCNQTNKYHKTEFQIAHKRLKIHRFCQNVLWFLWTKVKEEHGENFGDYALKRLDAAFKLLEELPLEHHHHHH | not soluble
19 | MAQVRQEIAREQEKAARLARNLAKYLSPQVWEMIFSGKKSVRLETQRKKLTVFFSDIRGFTELSEELEAEALTDLLNNYLNEMSKIALKYGGTIDKFVGDCVMVFFGDPSTQGAKKDAVAAVSMGIAMRKHMKVLRQQWRAQGITKPLEIRMGINTGYCTVGNFGADTRMDYTIIGREVNLASRLESASEAGEILISHETYSLIKDVIMCRDKGQIAVKGFSRPVQIYQVVDSRRDLGAAPSYVEHELPGFSMYLDTNNIQNYDKERVIQALQQAAER | not soluble
20 | MSIEPTQVSREAELGAFLRTHRERLTPSDVGLPPGRRRRTPGLRREEVAQLSGLSATWITWLEQGRPVAMSVRALGSLAEALRLSRAERAYLFALAGKPEPRQDAEPAVPVALLASVQAISGPAYLLDRQWTARAWNAAAADLFVGWLDAASGERNLLRAMFLPTALQALVEDWPHRAARLVAEFRVHSLRHAEDPPTRALIERLMEDSPAFAAAWRSQDVDERQGGRRGFHHPMRGLVYFEQLTLVPPAAPGMMLVMLLPETP | soluble
21 | MSSAFLADRRLIRVSGTGAEEFLNNLITADIENLPEGETRASALLTPQGKILFDFLIWRDGRDYLVETGAAEQDALLRRLTMYKLRAPVELKAETVEGIGVFWGNSVTEAGVRDGRFAKAGVDLRRVPGASASGEAAAYEALRVEHGIAESGRDYALQDAFPHDVLMDVNDGVSFKKGCFVGQEVVSRMKHRGTARRRVVTVSADGTLPASGTEITANGKPVGALGTVYGNRALAIVRTDRVADALAAGTPLLADNVAVSVALPAWSGLSFPAADPAARAED | not soluble
